Results as given in patent US20230310634A1, “ANTI-HUMAN VISTA ANTIBODIES AND USE THEREOF” (IMMUNEXT, INC., priority 2020, published 2023).

Columns and labels:
[1] = target: T1, human VISTA on cells (human) (UniProt Q9H7M9); experiment: flow cytometry with quantification beads, CD4+ CD25+ CD127low Tregs of human PBMC, n=5 donors
T1 sequence: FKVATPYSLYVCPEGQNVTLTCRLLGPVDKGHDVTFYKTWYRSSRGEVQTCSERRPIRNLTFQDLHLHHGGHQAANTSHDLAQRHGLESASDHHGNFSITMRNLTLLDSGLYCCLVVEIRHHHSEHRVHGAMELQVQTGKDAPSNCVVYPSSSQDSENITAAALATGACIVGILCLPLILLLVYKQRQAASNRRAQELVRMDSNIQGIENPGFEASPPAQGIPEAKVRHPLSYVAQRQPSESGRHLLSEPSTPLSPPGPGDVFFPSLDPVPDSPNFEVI

[2] = target: T1, human VISTA on cells (human); experiment: flow cytometry with quantification beads, CD4+ T cells in human whole blood, n=3 donors
[3] = target: T1, human VISTA on cells (human); experiment: flow cytometry with quantification beads, Tregs in human whole blood, n=3 donors
[4] = target: T1, human VISTA on cells (human); experiment: flow cytometry with quantification beads, CD66b+ neutrophils in human whole blood, n=3 donors
[5] = target: T1, human VISTA on cells (human); experiment: flow cytometry with quantification beads, CD8+ T cells in human whole blood, n=3 donors
[6] = target: T1, human VISTA on cells (human); experiment: flow cytometry with quantification beads, CD20+ B cells in human whole blood, n=3 donors
[7] = target: T1, human VISTA on cells (human); experiment: flow cytometry with quantification beads, CD8+ T cells of human PBMC, n=5 donors
[8] = target: T1, human VISTA on cells (human); experiment: flow cytometry with quantification beads, CD14+ monocytes of human PBMC, n=5 donors
[9] = target: T1, human VISTA on cells (human); experiment: flow cytometry with quantification beads, CD4+ T cells of human PBMC, n=5 donors
[10] = target: T1, human VISTA on cells (human); experiment: flow cytometry with quantification beads, CD14+ monocytes in human whole blood, n=3 donors

antibody binding capacity (ABC) [1]: 6640 molecules | antibody binding capacity (ABC) [2]: 8720 molecules | antibody binding capacity (ABC) [3]: 7490 molecules | antibody binding capacity (ABC) (ABC (molecules per cell)) [4]: 68600 | antibody binding capacity (ABC) [5]: 5010 molecules | antibody binding capacity (ABC) (ABC (molecules per cell)) [6]: 1280 | antibody binding capacity (ABC) [7]: 9960 molecules | antibody binding capacity (ABC) (ABC (molecules per cell)) [8]: 112000 | antibody binding capacity (ABC) [9]: 5940 molecules | antibody binding capacity (ABC) (ABC (molecules per cell)) [10]: 224000
B1: Anti-VISTA GG8 (antibody, V domains shown)
VH: EVQLQQSGPELVKPGTSMKISCKASGYSFTGYTMNWVRQSHGKNLEWIGLINPYNGGINYNQKFKARATLTVDKSSSTAYMELLSLTSEDSAVYYCARRTLLRPYFFDYWGQGTTLTVSS
VL: DIVLTQSPASLAVSLGQRATISCRASQSVSTSTFSYMHWYQQKPGQPPKLLIKYASNLESGVPARFSGSGSGTDFTLNIHPVEEEDTATYYCQHSWEIPYTFGGGTKLEIK
modifications: Alexa Fluor 647 dye conjugated to the antibody (p-1554); attachment sites not given
